The record followed here is article PMC7192382.

The data set concerns MtKNOX3 homeodomain (Medicago truncatula). The data set can be described thus: SPR. The conditions noted are these: SPR: PBS (150 mM NaCl, 2 mM Na2HPO4)/Tween pH 7.4, BSA 670 ug/ml, protein 0-10 uM, temperature not stated; EMSA: LightShift binding buffer (stock as printed …).
For LOG2-1 (MtLOG2 promoter site), the Kd turned out to be 28000 nM.

IPT3-1 (MtIPT3 promoter site): the Kd amounted to 2220 nM. With LOG1 (MtLOG1 first intron site), the Kd was 555 nM.

Broadly, the Kd is the equilibrium constant for the complex coming apart.
